# Experimental data: patent US20050202010A1, “Method of treatment and bioassay involving macrophage migration inhibitory factor (MIF) as cardiac-derived myocardial depressant factor” (priority 2003, published 2005)
# Where “and” joins values, the source holds several entries; their conditions need not be identical. Identical values can stand only once.
# B1: rMIF: recombinant human macrophage migration inhibitory factor added to the heart perfusate at 20 ng/ml (protein, UniProt P14174 2-115, looked up)
# Macrophage migration …: PMFIVNTNVPRASVPDGFLSELTQQLAQATGKPPQYIAVHVVPDQLMAFGGSSEPCALCSLHSIGKIGGAQNRSYSKLLCGLLAERLRISPDRVYINYYDMNAANVGWNNSTFA
# How the values were obtained:
# [1] = tested on: isolated TNFR−/− hearts; assay: Langendorff perfusion with rMIF, TNFR−/− hearts; parameters: species or system mouse
# Experimental: Ex vivo cardiac function determination by Langendorff Mouse heart function was determined using the Langendorff assay procedure. Briefly, 200 Units heparin sulfate were injected intraperitoneally and the mice were sacrificed 20 minutes later. The heart was immediately removed and placed on ice in Krebs-Henseleit Buffer ([…], 118 mM NaCl, 4.7 mM KCL, 1.2 mM KH2PO4, 1.2 mM MgSO4, 2.5 mM CaCl2, 11.1 mM glucose, pH 7.4, which was prepared fresh with demineralized, deionized water and bubbled with 95% O2 and 5% CO2(pO2 590 mmHg, pCO2 38 mmHg)). The aorta was cannulated with PE50 tubing, the heart perfused in a retrograde manner through the aortic root with pre-filtered, oxygenated Krebs-Henseleit Buffer at a constant flow rate of 1.5 ml/minute (constant temperature of 37° C., 100 ml recirculating volume). The heart was placed in a water-jacketed chamber to maintain constant temperature and humidity. Intramedic polyethylene tubing (PE60), connected to a Statham pressure transducer, was inserted into the left ventricle (LV) to measure LV pressure. Temperature was monitored using a 27 gauge thermistor needle inserted into the LV muscle. […] Following stabilization, LV pressure and its first derivative (dP/dt), heart rate, and coronary perfusion were measured simultaneously with a multi-channel Grass 7D polygraph (Grass Instruments, Quincy, Mass.). Ventricular performance as a function of coronary perfusion was determined for all hearts by plotting peak systolic LV pressure and ±dP/dtmax values against incremental increases in coronary flow rate.
# MIF has direct cardiodepressant effects in TNFR−/− mice to the same extent as in WT mice.
# [2] = tested on: CD74 KO mouse hearts; assay: Langendorff, rhMIF added to perfusate, CD74 KO mouse hearts; parameters: LVP / +dP/dt / −dP/dt / TPP / CVR: unit not given beside the values
# [3] = CD74 K/O + rhMIF, single hearts by date and mean (x), n 3
# [4] = CD74 K/O + rhMIF, single hearts by date and mean (x), n 3, mean
# [5] = CD74 KO + rhMIF in perfusate, n = 3
molecule,measurement,setting,value
B1,CPP,"[1]; TNF KO + rMIF 20 ng/ml, n = 4",91.5 ± 6.6 mmHg
same,CVR,"[1]; TNF KO + rMIF 20 ng/ml, n = 4",61.0 ± 4.4 mmHg
same,DR,"[1]; TNF KO + rMIF 20 ng/ml, n = 4",1.30 ± 0.10
same,HR,"[1]; TNF KO + rMIF 20 ng/ml, n = 4",335 ± 20 bpm
same,RT90,"[1]; TNF KO + rMIF 20 ng/ml, n = 4",71.3 ± 4.2 ms
same,TPP,"[1]; TNF KO + rMIF 20 ng/ml, n = 4",67.0 ± 2.4 ms
same,Time to Max +dP/dt,"[1]; TNF KO + rMIF 20 ng/ml, n = 4",47.0 ± 2.4 ms
same,Time to Max −dP/dt,"[1]; TNF KO + rMIF 20 ng/ml, n = 4",47.0 ± 2.4 ms
same,dP40,"[1]; TNF KO + rMIF 20 ng/ml, n = 4",1613 ± 105 mmHg/sec
same,−dP/dt max,"[1]; TNF KO + rMIF 20 ng/ml, n = 4",1413 ± 151 mmHg/sec
same,LVP,"[1]; TNF KO + rMIF 20 ng/ml, n = 4, mean ± SE",66.0 ± 4.7 mmHg
same,+dP/dt max,"[1]; TNFR−/− + rMIF 20 ng/ml, n = 4",1800 ± 100 mmHg/sec
same,onset of cardiac dysfunction (systolic and diastolic),"[1]; isolated hearts (Langendorf prep), both TNFR−/− and wild type mice",≤ 20 min
same,+dP/dt,[2]; [3],1800 and 1600 and 2200
same,CVR,[2]; [3],45 and 53 and 71
same,DR,[2]; [3],1.286 and 1.455 and 1.222
same,HR,[2]; [3],320 and 325
same,LVP,[2]; [3],64 and 50 and 88
same,Max + d,[2]; [3],45 and 50 and 40
same,Max − d,[2]; [3],53 and 52
same,RT90,[2]; [3],80 and 72
same,TPP,[2]; [3],70 and 75 and 63
same,dP40,[2]; [3],1900
same,−dP/dt,[2]; [3],1400 and 1100 and 1800
same,+dP/dt,[2]; [4],1866.667
same,CVR,[2]; [4],56.33
same,DR,[2]; [4],1.321
same,HR,[2]; [4],321.6667
same,LVP,[2]; [4],67.33
same,Max − d,[2]; [4],52.67
same,RT90,[2]; [4],77.33
same,TPP,[2]; [4],69.33
same,dP40,[2]; [4],1666.667
same,−dP/dt,[2]; [4],1433.333
same,+dP/dt max,[2]; [5],1867 ± 176 mmHg/sec
same,Coronay Perfusion Pressue,[2]; [5],86.0 ± 23.6 mmHg
same,Coronay Vascular Resistance,[2]; [5],56.3 ± 7.7 mmHg
same,Heart Rate,[2]; [5],322 ± 2 bpm
same,Left Ventricular Pressure,[2]; [5],67.3 ± 14.4 mmHg
same,Time to 90% Relaxation,[2]; [5],77.3 ± 2.7 ms
same,Time to Max +dP/dt,[2]; [5],45.0 ± 2.9 ms
same,Time to Max −dP/dt,[2]; [5],52.7 ± 0.3 ms
same,Time to Peak Pressue,[2]; [5],69.3 ± 3.5 ms
same,dP40,[2]; [5],1662 ± 120 mmHg/sec
same,−dP/dt max,[2]; [5],1433 ± 202 mmHg/sec
